# T1: DFNB31_3, Q9P202
# T1 sequence (Q9P202 811-907, limits assumed, looked up): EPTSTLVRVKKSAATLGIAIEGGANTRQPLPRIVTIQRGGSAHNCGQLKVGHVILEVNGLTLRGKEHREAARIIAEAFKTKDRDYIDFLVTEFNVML
# T2: SNTA1, Q13424
# T2 sequence (Q13424 82-180, limits assumed, looked up): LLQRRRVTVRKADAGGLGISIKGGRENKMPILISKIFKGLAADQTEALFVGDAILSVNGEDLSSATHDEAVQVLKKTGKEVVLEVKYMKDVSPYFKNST
# T3: ARHGEF11, O15085
# T3 sequence (O15085 42-136, limits assumed, looked up): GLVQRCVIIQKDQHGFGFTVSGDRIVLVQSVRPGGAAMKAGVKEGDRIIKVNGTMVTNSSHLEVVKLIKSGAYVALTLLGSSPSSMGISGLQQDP
# T4: CARD11, Q9BXL7
# T4 sequence (Q9BXL7 662-765, limits assumed, looked up): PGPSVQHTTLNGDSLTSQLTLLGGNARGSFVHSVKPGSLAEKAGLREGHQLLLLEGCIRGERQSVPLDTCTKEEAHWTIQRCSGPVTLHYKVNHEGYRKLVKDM
# T5: RADIL, Q96JH8
# T5 sequence (Q96JH8 971-1071, limits assumed, looked up): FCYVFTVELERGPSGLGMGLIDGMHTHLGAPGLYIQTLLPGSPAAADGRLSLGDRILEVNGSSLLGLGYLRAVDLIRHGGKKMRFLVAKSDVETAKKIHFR
# T6: GRIP1_3, Q9Y3R0
# T6 sequence (Q9Y3R0 247-346, limits assumed, looked up): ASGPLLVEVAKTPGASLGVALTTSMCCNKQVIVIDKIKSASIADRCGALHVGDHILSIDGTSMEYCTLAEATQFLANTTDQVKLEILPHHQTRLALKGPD
# T7: NHERF3_1, Q5T2W1
# T7 sequence (Q5T2W1 4-100, limits assumed, looked up): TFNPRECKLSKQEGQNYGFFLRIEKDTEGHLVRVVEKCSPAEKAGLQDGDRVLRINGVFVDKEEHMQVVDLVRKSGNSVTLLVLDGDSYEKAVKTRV
# T8: MPDZ_10, O75970
# T8 sequence (O75970 1624-1722, limits assumed, looked up): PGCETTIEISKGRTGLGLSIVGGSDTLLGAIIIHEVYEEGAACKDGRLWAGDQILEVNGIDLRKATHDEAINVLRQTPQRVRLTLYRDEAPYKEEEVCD
# T9: GRIP1_5, Q9Y3R0
# T9 sequence (Q9Y3R0 568-668, limits assumed, looked up): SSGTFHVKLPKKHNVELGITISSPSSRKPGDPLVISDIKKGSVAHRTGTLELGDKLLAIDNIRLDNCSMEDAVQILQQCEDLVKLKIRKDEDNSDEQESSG
# T10: LNX2_3, Q8N448
# T10 sequence (Q8N448 463-564, limits assumed, looked up): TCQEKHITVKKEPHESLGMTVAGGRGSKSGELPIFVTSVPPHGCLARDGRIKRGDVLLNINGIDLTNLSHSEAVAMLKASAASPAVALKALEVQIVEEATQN
# Molecular target: T1, DFNB31_3, Q9P202
# Experiment: holdup assay
# Parameters: key: below the threshold = too weak to quantify, mostly under pKd 3.1 to 4
# Conditions: plain residues with an end cap or a label only (N-terminal biotin on a linker: ado-ado)
row,Binder,pKd
1,"LDKESFLTWL [YAP1, P46937]",5.37
2,"VRPGVKESLV [SCN4A, P35499]",below the threshold

# Molecular target: T2, SNTA1, Q13424
# Experiment: holdup assay
# Parameters: key: below the threshold = too weak to quantify, mostly under pKd 3.1 to 4
# Conditions: plain residues with an end cap or a label only (N-terminal biotin on a linker: ado-ado)
row,Binder,pKd
1,"LDKESFLTWL [YAP1, P46937]",below the threshold
2,"VRPGVKESLV [SCN4A, P35499]",4.76

# Molecular target: T3, ARHGEF11, O15085
# Experiment: holdup assay
# Parameters: key: below the threshold = too weak to quantify, mostly under pKd 3.1 to 4
# Conditions: plain residues with an end cap or a label only (N-terminal biotin on a linker: ado-ado)
row,Binder,pKd
1,"LDKESFLTWL [YAP1, P46937]",5.32
2,"VRPGVKESLV [SCN4A, P35499]",below the threshold

# Molecular target: SCRIB_3, Q14160
# Sequence (Q14160 999-1103): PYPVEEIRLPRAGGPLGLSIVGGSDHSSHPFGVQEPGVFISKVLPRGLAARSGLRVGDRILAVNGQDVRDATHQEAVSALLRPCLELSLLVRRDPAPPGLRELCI
# Experiment: holdup assay
# Parameters: key: below the threshold = too weak to quantify, mostly under pKd 3.1 to 4
# Conditions: plain residues with an end cap or a label only (N-terminal biotin on a linker: ado-ado)
row,Binder,pKd
1,"LDKESFLTWL [YAP1, P46937]",5.02
2,"VRPGVKESLV [SCN4A, P35499]",4.34

# Molecular target: T4, CARD11, Q9BXL7
# Experiment: holdup assay
# Parameters: key: below the threshold = too weak to quantify, mostly under pKd 3.1 to 4
# Conditions: plain residues with an end cap or a label only (N-terminal biotin on a linker: ado-ado)
row,Binder,pKd
1,"LDKESFLTWL [YAP1, P46937]",3.64
2,"VRPGVKESLV [SCN4A, P35499]",below the threshold

# Molecular target: MAGI2_5, Q86UL8
# Sequence (Q86UL8 915-1017): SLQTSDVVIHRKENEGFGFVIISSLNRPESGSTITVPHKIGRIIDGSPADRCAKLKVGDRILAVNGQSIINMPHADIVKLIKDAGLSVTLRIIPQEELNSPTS
# Experiment: holdup assay
# Parameters: key: below the threshold = too weak to quantify, mostly under pKd 3.1 to 4
# Conditions: plain residues with an end cap or a label only (N-terminal biotin on a linker: ado-ado)
row,Binder,pKd
1,"LDKESFLTWL [YAP1, P46937]",4.18
2,"VRPGVKESLV [SCN4A, P35499]",5.03

# Molecular target: GRIP2_3, Q9C0E4
# Sequence (Q9C0E4 238-339): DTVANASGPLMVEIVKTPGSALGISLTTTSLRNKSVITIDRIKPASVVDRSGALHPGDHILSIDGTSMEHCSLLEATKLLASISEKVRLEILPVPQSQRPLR
# Experiment: holdup assay
# Parameters: key: below the threshold = too weak to quantify, mostly under pKd 3.1 to 4
# Conditions: plain residues with an end cap or a label only (N-terminal biotin on a linker: ado-ado)
row,Binder,pKd
1,"LDKESFLTWL [YAP1, P46937]",below the threshold
2,"VRPGVKESLV [SCN4A, P35499]",below the threshold

# Molecular target: MAGI2_6, Q86UL8
# Sequence (Q86UL8 1141-1229): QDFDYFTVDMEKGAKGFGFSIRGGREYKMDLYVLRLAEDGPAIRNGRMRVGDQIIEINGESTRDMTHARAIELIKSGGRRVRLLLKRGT
# Experiment: holdup assay
# Parameters: key: below the threshold = too weak to quantify, mostly under pKd 3.1 to 4
# Conditions: plain residues with an end cap or a label only (N-terminal biotin on a linker: ado-ado)
row,Binder,pKd
1,"LDKESFLTWL [YAP1, P46937]",4.82
2,"VRPGVKESLV [SCN4A, P35499]",3.93

# Molecular target: GRIP2_5, Q9C0E4
# Sequence (Q9C0E4 544-642): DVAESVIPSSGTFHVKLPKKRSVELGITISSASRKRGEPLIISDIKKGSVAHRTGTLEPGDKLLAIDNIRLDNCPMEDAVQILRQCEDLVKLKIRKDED
# Experiment: holdup assay
# Parameters: key: below the threshold = too weak to quantify, mostly under pKd 3.1 to 4
# Conditions: plain residues with an end cap or a label only (N-terminal biotin on a linker: ado-ado)
row,Binder,pKd
1,"LDKESFLTWL [YAP1, P46937]",below the threshold
2,"VRPGVKESLV [SCN4A, P35499]",below the threshold

# Molecular target: NHERF4_2, Q86UT5
# Sequence (Q86UT5 220-308): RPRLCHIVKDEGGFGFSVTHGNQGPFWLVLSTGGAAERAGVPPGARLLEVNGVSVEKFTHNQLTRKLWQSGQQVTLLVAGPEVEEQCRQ
# Experiment: holdup assay
# Parameters: key: below the threshold = too weak to quantify, mostly under pKd 3.1 to 4
# Conditions: plain residues with an end cap or a label only (N-terminal biotin on a linker: ado-ado)
row,Binder,pKd
1,"LDKESFLTWL [YAP1, P46937]",below the threshold
2,"VRPGVKESLV [SCN4A, P35499]",below the threshold

# Molecular target: T5, RADIL, Q96JH8
# Experiment: holdup assay
# Parameters: key: below the threshold = too weak to quantify, mostly under pKd 3.1 to 4
# Conditions: plain residues with an end cap or a label only (N-terminal biotin on a linker: ado-ado)
row,Binder,pKd
1,"LDKESFLTWL [YAP1, P46937]",5.51
2,"VRPGVKESLV [SCN4A, P35499]",4.22

# Molecular target: FRMPD2_2, Q68DX3
# Sequence (Q68DX3 944-1038): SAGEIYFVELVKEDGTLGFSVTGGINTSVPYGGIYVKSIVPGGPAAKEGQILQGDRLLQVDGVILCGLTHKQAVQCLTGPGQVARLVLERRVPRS
# Experiment: holdup assay
# Parameters: key: below the threshold = too weak to quantify, mostly under pKd 3.1 to 4
# Conditions: plain residues with an end cap or a label only (N-terminal biotin on a linker: ado-ado)
row,Binder,pKd
1,"LDKESFLTWL [YAP1, P46937]",4.27
2,"VRPGVKESLV [SCN4A, P35499]",3.91

# Molecular target: DLG2_3, Q15700
# Experiment: holdup assay
# Parameters: key: below the threshold = too weak to quantify, mostly under pKd 3.1 to 4
# Conditions: plain residues with an end cap or a label only (N-terminal biotin on a linker: ado-ado)
row,Binder,pKd
1,"LDKESFLTWL [YAP1, P46937]",below the threshold
2,"VRPGVKESLV [SCN4A, P35499]",4.27

# Molecular target: GORASP1, Q9BQQ3
# Sequence (Q9BQQ3 1-208): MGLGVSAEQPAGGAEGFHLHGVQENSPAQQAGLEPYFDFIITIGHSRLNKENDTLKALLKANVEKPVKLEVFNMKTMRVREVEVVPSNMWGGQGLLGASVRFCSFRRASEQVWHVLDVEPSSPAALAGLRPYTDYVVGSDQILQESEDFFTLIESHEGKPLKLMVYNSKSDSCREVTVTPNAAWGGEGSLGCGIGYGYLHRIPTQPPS
# Experiment: holdup assay
# Parameters: key: below the threshold = too weak to quantify, mostly under pKd 3.1 to 4
# Conditions: plain residues with an end cap or a label only (N-terminal biotin on a linker: ado-ado)
row,Binder,pKd
1,"LDKESFLTWL [YAP1, P46937]",5.11
2,"VRPGVKESLV [SCN4A, P35499]",below the threshold

# Molecular target: T6, GRIP1_3, Q9Y3R0
# Experiment: holdup assay
# Parameters: key: below the threshold = too weak to quantify, mostly under pKd 3.1 to 4
# Conditions: plain residues with an end cap or a label only (N-terminal biotin on a linker: ado-ado)
row,Binder,pKd
1,"LDKESFLTWL [YAP1, P46937]",below the threshold
2,"VRPGVKESLV [SCN4A, P35499]",below the threshold

# Molecular target: T7, NHERF3_1, Q5T2W1
# Experiment: holdup assay
# Parameters: key: below the threshold = too weak to quantify, mostly under pKd 3.1 to 4
# Conditions: plain residues with an end cap or a label only (N-terminal biotin on a linker: ado-ado)
row,Binder,pKd
1,"LDKESFLTWL [YAP1, P46937]",5.1
2,"VRPGVKESLV [SCN4A, P35499]",4.6

# Molecular target: MAGI3_2, Q5TCQ9
# Sequence (Q5TCQ9 398-503): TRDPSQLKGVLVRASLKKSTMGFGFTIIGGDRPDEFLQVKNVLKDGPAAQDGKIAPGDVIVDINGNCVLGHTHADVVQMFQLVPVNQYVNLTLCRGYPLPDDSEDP
# Experiment: holdup assay
# Parameters: key: below the threshold = too weak to quantify, mostly under pKd 3.1 to 4
# Conditions: plain residues with an end cap or a label only (N-terminal biotin on a linker: ado-ado)
row,Binder,pKd
1,"LDKESFLTWL [YAP1, P46937]",4.75
2,"VRPGVKESLV [SCN4A, P35499]",5.52

# Molecular target: Inadl_4, Q8NI35
# Sequence (Q8NI35 547-651): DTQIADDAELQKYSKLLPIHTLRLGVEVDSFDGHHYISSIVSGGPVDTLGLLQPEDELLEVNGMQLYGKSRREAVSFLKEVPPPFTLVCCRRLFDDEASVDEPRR
# Experiment: holdup assay
# Parameters: key: below the threshold = too weak to quantify, mostly under pKd 3.1 to 4
# Conditions: plain residues with an end cap or a label only (N-terminal biotin on a linker: ado-ado)
row,Binder,pKd
1,"LDKESFLTWL [YAP1, P46937]",below the threshold
2,"VRPGVKESLV [SCN4A, P35499]",below the threshold

# Molecular target: T8, MPDZ_10, O75970
# Experiment: holdup assay
# Parameters: key: below the threshold = too weak to quantify, mostly under pKd 3.1 to 4
# Conditions: plain residues with an end cap or a label only (N-terminal biotin on a linker: ado-ado)
row,Binder,pKd
1,"LDKESFLTWL [YAP1, P46937]",below the threshold
2,"VRPGVKESLV [SCN4A, P35499]",below the threshold

# Molecular target: DLG1_2, Q12959
# Sequence (Q12959 314-412): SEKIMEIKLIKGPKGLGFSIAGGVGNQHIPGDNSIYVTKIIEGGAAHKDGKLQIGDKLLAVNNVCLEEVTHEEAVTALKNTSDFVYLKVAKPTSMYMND
# Experiment: holdup assay
# Parameters: key: below the threshold = too weak to quantify, mostly under pKd 3.1 to 4
# Conditions: plain residues with an end cap or a label only (N-terminal biotin on a linker: ado-ado)
row,Binder,pKd
1,"LDKESFLTWL [YAP1, P46937]",below the threshold
2,"VRPGVKESLV [SCN4A, P35499]",5.64

# Molecular target: DLG1_3, Q12959
# Sequence (Q12959 457-571): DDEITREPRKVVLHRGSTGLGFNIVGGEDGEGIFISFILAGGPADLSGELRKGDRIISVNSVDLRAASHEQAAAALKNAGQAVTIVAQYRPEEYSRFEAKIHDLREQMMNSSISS
# Experiment: holdup assay
# Parameters: key: below the threshold = too weak to quantify, mostly under pKd 3.1 to 4
# Conditions: plain residues with an end cap or a label only (N-terminal biotin on a linker: ado-ado)
row,Binder,pKd
1,"LDKESFLTWL [YAP1, P46937]",below the threshold
2,"VRPGVKESLV [SCN4A, P35499]",3.97

# Molecular target: PTPN3, P26045
# Sequence (P26045 505-587): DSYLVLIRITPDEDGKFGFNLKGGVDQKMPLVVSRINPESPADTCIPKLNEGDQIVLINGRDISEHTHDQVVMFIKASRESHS
# Experiment: holdup assay
# Parameters: key: below the threshold = too weak to quantify, mostly under pKd 3.1 to 4
# Conditions: plain residues with an end cap or a label only (N-terminal biotin on a linker: ado-ado)
row,Binder,pKd
1,"LDKESFLTWL [YAP1, P46937]",4.62
2,"VRPGVKESLV [SCN4A, P35499]",4.78

# Molecular target: T9, GRIP1_5, Q9Y3R0
# Experiment: holdup assay
# Parameters: key: below the threshold = too weak to quantify, mostly under pKd 3.1 to 4
# Conditions: plain residues with an end cap or a label only (N-terminal biotin on a linker: ado-ado)
row,Binder,pKd
1,"LDKESFLTWL [YAP1, P46937]",below the threshold
2,"VRPGVKESLV [SCN4A, P35499]",below the threshold

# Molecular target: MAGI2_2, Q86UL8
# Sequence (Q86UL8 410-522): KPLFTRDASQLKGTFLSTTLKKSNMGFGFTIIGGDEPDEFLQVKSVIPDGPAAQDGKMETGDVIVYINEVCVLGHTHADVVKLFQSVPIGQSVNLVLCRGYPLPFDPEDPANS
# Experiment: holdup assay
# Parameters: key: below the threshold = too weak to quantify, mostly under pKd 3.1 to 4
# Conditions: plain residues with an end cap or a label only (N-terminal biotin on a linker: ado-ado)
row,Binder,pKd
1,"LDKESFLTWL [YAP1, P46937]",3.55
2,"VRPGVKESLV [SCN4A, P35499]",5.2

# Molecular target: T10, LNX2_3, Q8N448
# Experiment: holdup assay
# Parameters: key: below the threshold = too weak to quantify, mostly under pKd 3.1 to 4
# Conditions: plain residues with an end cap or a label only (N-terminal biotin on a linker: ado-ado)
row,Binder,pKd
1,"LDKESFLTWL [YAP1, P46937]",below the threshold
2,"VRPGVKESLV [SCN4A, P35499]",below the threshold

# Molecular target: Inadl_1, Q8NI35
# Sequence (Q8NI35 113-229): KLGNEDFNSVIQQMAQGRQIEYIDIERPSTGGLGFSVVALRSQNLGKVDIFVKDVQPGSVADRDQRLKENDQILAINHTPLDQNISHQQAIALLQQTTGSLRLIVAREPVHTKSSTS
# Experiment: holdup assay
# Parameters: key: below the threshold = too weak to quantify, mostly under pKd 3.1 to 4
# Conditions: plain residues with an end cap or a label only (N-terminal biotin on a linker: ado-ado)
row,Binder,pKd
1,"LDKESFLTWL [YAP1, P46937]",4.54
2,"VRPGVKESLV [SCN4A, P35499]",below the threshold

# Molecular target: HTRA2, O43464
# Sequence (O43464 355-458): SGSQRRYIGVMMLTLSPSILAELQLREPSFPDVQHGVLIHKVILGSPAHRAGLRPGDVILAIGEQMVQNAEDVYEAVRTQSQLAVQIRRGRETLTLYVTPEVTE
# Experiment: holdup assay
# Parameters: key: below the threshold = too weak to quantify, mostly under pKd 3.1 to 4
# Conditions: plain residues with an end cap or a label only (N-terminal biotin on a linker: ado-ado)
row,Binder,pKd
1,"LDKESFLTWL [YAP1, P46937]",4.73
2,"VRPGVKESLV [SCN4A, P35499]",below the threshold

# Source: PMC9482650, “Quantitative fragmentomics allow affinity mapping of interactomes” (Nature Communications, 2022)
